Target: Mouse Pcdh15 EC1-2 (mouse, UniProt Q99PJ1 27-259)
Experiment: AFM force-clamp spectroscopy

B1: Mouse Cdh23 EC1-2 (domain or fragment)
chain: QVNRLPFFTNHFFDTYLLISEDTPVGSSVTQLLARDMDNDPLVFGVSGEEASRFFAVEPDTGVVWLRQPLDRETKSEFTVEFSVSDHQGVITRKVNIQVGDVNDNAPTFHNQPYSVRIPENTPVGTPIFIVNATDPDLGAGGSVLYSFQPPSPFFAIDSARGIVTVIQELDYEVTQAYQLTVNATDQDKTRPLSTLANLAIIITD
koff: 0.2 s⁻¹

From publication doi:10.1101/2022.08.10.503460 (bioRxiv, 2022)
